These results are taken from US20230398229A1, “ANTIBODY DRUG […] AGONISTS, COMBINATIONS AND METHODS OF USE” (Mersana Therapeutics, Inc., priority 2022, published 2023).

The target in one assay is HER2 (Homo sapiens, UniProt P04626). Kind of assay: Inhibition of HER2 functional activity in vitro.
For a further assay, the target named is rat HER2 (Rattus norvegicus, UniProt P06494). As to the kind of experiment: Binding of antibody to rat HER2.
Chain of rat HER2 (P06494 23-1257): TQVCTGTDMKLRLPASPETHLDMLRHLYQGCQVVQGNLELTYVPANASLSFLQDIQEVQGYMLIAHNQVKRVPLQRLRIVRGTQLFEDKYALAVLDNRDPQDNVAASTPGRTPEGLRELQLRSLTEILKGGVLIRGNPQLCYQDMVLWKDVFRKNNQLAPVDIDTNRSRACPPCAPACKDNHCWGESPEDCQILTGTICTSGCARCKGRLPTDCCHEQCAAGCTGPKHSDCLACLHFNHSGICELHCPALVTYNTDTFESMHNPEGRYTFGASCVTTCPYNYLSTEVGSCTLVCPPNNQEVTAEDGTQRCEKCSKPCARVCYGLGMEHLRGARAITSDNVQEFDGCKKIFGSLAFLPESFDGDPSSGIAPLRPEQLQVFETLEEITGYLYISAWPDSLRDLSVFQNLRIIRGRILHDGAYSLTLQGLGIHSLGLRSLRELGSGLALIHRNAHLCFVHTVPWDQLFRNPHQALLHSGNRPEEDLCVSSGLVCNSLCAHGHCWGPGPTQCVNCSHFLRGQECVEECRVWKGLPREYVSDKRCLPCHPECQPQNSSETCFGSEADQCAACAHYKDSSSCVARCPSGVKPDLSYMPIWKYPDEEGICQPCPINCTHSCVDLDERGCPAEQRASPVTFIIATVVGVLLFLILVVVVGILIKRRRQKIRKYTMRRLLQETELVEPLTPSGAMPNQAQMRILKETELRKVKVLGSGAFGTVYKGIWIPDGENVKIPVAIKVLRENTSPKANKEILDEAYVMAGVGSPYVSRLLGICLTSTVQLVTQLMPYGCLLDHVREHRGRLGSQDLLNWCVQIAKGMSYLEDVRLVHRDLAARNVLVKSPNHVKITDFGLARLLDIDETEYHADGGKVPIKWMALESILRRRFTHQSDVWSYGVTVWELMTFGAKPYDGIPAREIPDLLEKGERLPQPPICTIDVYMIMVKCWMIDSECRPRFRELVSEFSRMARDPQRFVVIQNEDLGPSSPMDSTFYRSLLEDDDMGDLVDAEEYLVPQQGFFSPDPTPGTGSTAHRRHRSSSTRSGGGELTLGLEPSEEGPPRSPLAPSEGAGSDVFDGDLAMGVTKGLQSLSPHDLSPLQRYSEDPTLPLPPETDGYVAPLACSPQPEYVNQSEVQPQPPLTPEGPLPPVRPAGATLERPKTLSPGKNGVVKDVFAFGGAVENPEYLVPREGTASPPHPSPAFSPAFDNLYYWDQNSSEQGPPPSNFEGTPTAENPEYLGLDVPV

With “XMT-1519: anti-Her2 antibody disclosed in U.S. Pat. No. 9,555,112 and 9,738,720”, the “Functional activity of HER2” value in the assay with HER2 is given as “inhibit the functional activity of HER2”. Besides, in the assay with rat HER2, the “Binding to rat HER2” value is recorded as “does not bind”.
